Entries after “also recorded” stand apart in the source; their conditions may differ.

For experiment [1], the target named is T1, AtPRK6^LRR, extracellular LRR domain of AtPRK6 (residues 1-262) (Arabidopsis thaliana, UniProt Q3E991 27-262).
T1 construct: signal peptide in the construct; leucine-rich repeat receptor kinase PRK6 of Arabidopsis thaliana, extracellular LRR domain, residues 1-262; Monomer by gel filtration; likely glycosylated (apparent 34 kDa); source: High Five insect cells (baculovirus), secreted, purified (Ni-NTA, size-exclusion chromatography); also co-expressed with AtLURE1 peptides; not shown: His6, C-terminal, kept
T1 sequence (looked up): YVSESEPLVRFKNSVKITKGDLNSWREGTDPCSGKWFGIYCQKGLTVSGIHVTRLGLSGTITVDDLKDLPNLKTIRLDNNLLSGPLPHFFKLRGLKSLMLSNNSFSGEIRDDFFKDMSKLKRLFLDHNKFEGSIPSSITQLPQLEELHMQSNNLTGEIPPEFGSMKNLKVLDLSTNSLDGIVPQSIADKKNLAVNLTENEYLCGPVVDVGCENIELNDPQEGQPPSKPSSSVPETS
Nature of the experiment: ITC; ITC200, 25 °C, 200 mM HEPES pH 7.0, 100 mM NaCl; about 0.9 mM AtLURE1.2 injected (20 x 2 μl) into 0.08 mM LRR protein in the cell. Particulars: both partners purified.

Experiment [2] addresses T2, AtPRK6^LRR N239A (residues 1-262) (Arabidopsis thaliana, UniProt Q3E991 27-262, N239A).
T2 construct: signal peptide in the construct; PRK6 of Arabidopsis thaliana, extracellular LRR domain, residues 1-262, with N239A; also called N239A mutant of PRK6; source: High Five insect cells (baculovirus), secreted, purified as AtPRK6^LRR; not shown: His6, C-terminal, kept
T2 sequence (looked up): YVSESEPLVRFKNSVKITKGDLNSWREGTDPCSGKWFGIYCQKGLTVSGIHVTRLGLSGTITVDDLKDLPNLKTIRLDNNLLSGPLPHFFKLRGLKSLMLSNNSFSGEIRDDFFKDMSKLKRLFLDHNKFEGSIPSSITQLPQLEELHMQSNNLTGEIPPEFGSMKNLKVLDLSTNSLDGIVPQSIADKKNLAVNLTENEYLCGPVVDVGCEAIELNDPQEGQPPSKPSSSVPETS
Put plainly: pull-down; His-tagged LRR protein mixed with excess AtLURE1.2 peptide and held on Ni-NTA resin, on ice 30 min; washed five times with 25 mM Tris pH 8.0, 150 mM NaCl, 15 mM imidazole; eluted with 250 mM imidazole; SDS-PAGE, Coomassie. Particulars: both partners purified.

Experiment [3] addresses T3, AtPRK6^LRR, extracellular LRR domain of AtPRK6 (residues 1-262) (Arabidopsis thaliana, UniProt Q3E991 27-262).
T3 chain: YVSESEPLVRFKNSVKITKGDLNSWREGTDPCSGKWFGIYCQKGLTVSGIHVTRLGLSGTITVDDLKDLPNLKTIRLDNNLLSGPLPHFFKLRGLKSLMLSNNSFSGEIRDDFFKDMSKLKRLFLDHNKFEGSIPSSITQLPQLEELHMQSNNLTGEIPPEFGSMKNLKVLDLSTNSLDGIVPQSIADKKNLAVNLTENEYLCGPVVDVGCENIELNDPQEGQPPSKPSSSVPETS
Nature of the experiment: ITC.

In experiment [4] the test system is semi-in-vivo pollen tubes. Put plainly: Gelatin-beads assay, wild-type semi-in-vivo pollen tubes. Conditions: for pollen tube attraction activity (in words): Tukey−Kramer test, P < 0.05. The format is cell-based, Arabidopsis. How it is done: (§1) Attraction activities of mutant AtLURE1.2 peptides were examined for semi-in-vivo pollen tubes growing through cut, pollinated pistils by gelatin-beads assay and wavy assay, [20]. For the gelatin-beads assay, pollen tubes were grown on solid pollen germination medium poured into a mold made with 1-mm thick silicone rubber and cover glasses. After hand-pollination, the topside cover glass was removed and the medium was covered with hydrated silicone oil (KF-96–100CS; Shin-Etsu). Attraction of pollen tubes toward the peptide was evaluated using AtLURE1 peptide containing gelatine beads under an inverted microscope (IX71, Olympus) equipped with a micro-manipulator (Narishige). For the AtLURE1-responsive wavy assay, the purified AtLURE1.2 peptide was added to solid pollen germination medium, which was melted at 70 °C and then cooled to a certain degree. The mixture was mixed by vortexing and poured into the mold. Pollen tubes of each genotype were grown through cut styles, as mentioned above. Each peptide (25 μM in 10 mM Bis-Tris (pH 6.0) and 100 mM NaCl) was diluted to 250 nM by cultivation medium in both assays. To examine reactivity of PRK6 mutants to AtLURE1.2, constructs for PRK6 mutants, D234A, N239A, and ΔN239I240, were generated by site-directed mutagenesis from a wild-type PRK6 vector, pPZP221-pPRK6::PRK6-mRuby2 (ref. [20]). Wild-type and mutant PRK6 constructs were introduced into prk6–1 plant. After transformants were selected by the same criteria as previously, beads assay and wavy assay were performed in several T1 lines and single T2 line, respectively, for each genotype using 250 nM wild-type AtLURE1.2 peptide.

In experiment [5] the test system is semi-in-vivo pollen tubes (wild type). Put plainly: AtLURE-responsive wavy assay, wild-type pollen tubes. It is filed as cell-based, Arabidopsis. Conditions: 250 nM peptide in solid pollen germination medium. How it is done: as §1, with “To examine reactivity of PRK6 mutants to AtLURE1.2, constructs for PRK6 mutants, D234A, N239A, and ΔN239I240, were generated by site-directed mutagenesis from a wild-type PRK6 vector, pPZP221-pPRK6::PRK6-mRuby2 (ref. [20]). Wild-type and mutant PRK6 constructs were introduced into prk6–1 plant. After transformants were selected by the same criteria as previously, beads assay and wavy assay were performed in several T1 lines and single T2 line, respectively, for each genotype using 250 nM wild-type AtLURE1.2 peptide.” left out
pollen tubes. Fluorescence is from mRuby2 fused to the C-terminal of PRK6 receptors, showing that all of mutant PRK6 receptors localize normally to the plasma membrane of the pollen tube tip. […]

A further experiment deals with AtPRK6^LRR. Nature of the experiment: In vitro pull-down with AtPRK6^LRR. The format is binding, Arabidopsis thaliana. The text has this: The genes of AtPRK3 ^LRR (residues 1–241), AtPRK4 ^LRR (residues 1–277), AtPRK5 ^LRR (residues 1–279), AtPRK6 ^LRR (residues 1–262), MIK1 ^LRR (residues 1–633), MIK2 ^LRR (residues 1–707) were amplified from Arabidopsis cDNA library by PCR and cloned into pFastBac-1 vector with a C-terminal 6 × His-tag. Their identities were confirmed by sequencing. The mature form of AtLURE1.1 (residues 20–94), AtLURE1.2 (residues 20–90), AtLURE1.3 (residues 21–91), and AtLURE1.4 (residues 20–90) were cloned into pFastBac-1 vector, with a modified N-terminal hemolin signal peptide and 6 × His-SUMO tag. Point mutation constructs were generated by QuickChange Site-Directed Mutagenesis Kit (Strategene). All the proteins were expressed using the Bac-to-Bac baculovirus expression system (Invitrogen) in High Five cells at 22 °C. One liter of High Five cells (2.0 × 10^6 cells mL^−1) cultured in the medium from Expression Systems was infected with 25 ml recombinant baculovirus and the media was collected after 72 h of infection. Secreted LRR proteins were purified using Ni-NTA (Novagen) and size-exclusion chromatography (Hiload 200, GE Healthcare) in buffer containing 10 mM Bis-Tris pH 6.0 and 100 mM NaCl. The His-SUMO tag of the AtLURE proteins was removed by Prescission Protease at 4 °C overnight in buffer containing 25 mM Tris pH 8.0 and 150 mM NaCl. All AtLURE proteins were further cleaned by size-exclusion chromatography (Hiload 200, GE Healthcare). For co-expression of AtPRK6^LRR and AtLURE1, one liter of High Five cells were co-infected with 20 and 30 ml recombinant baculovirus of AtPRK6^LRR and AtLURE1, respectively. Secreted AtPRK6^LRR-AtLURE1 complexes were processed with Prescission Protease digestion and then purified as described above. Expression and purification procedures of all the mutants were essentially the same as those of AtPRK6^LRR and AtLURE1.2.
The purified His-tagged ectodomains of AtPRK proteins and MIK1, 2 were used to pull-down the AtLURE1.2 peptide. […] All the eluted samples were analyzed by SDS-PAGE and visualized by Coomassie blue staining. […]

Experiment [6] addresses T1, AtPRK6^LRR, extracellular LRR domain of …. Nature of the experiment: pull-down; His-tagged LRR protein mixed with excess AtLURE1.2 peptide and held on Ni-NTA resin, on ice 30 min; washed five times with 25 mM Tris pH 8.0, 150 mM NaCl, 15 mM imidazole; eluted with 250 mM imidazole; SDS-PAGE, Coomassie. Conditions: both partners purified.
Where [7] appears, read: gelatin beads containing 250 nM peptide.

B1: AtLURE1.2, mature form (residues 20-90) (peptide, UniProt Q4VP08 20-90, looked up)
chain: TLINGSSDEERTYSFSPTTSPFDPRSLNQELKIGRIGYCFDCARACMRRGKYIRTCSFERKLCRCSISDIK
notes: AtLURE1.2, defensin-like cysteine-rich peptide of Arabidopsis thaliana, mature form, residues 20-90; Cloned in pFastBac-1 behind a modified N-terminal hemolin signal peptide and a 6xHis-SUMO tag; Likely glycosylated (apparent 14 kDa); also called AtLURE1.2 peptide; source: also co-expressed with AtPRK6^LRR for the crystallised complex; not shown: His6, N-terminal, cleaved; SUMO, N-terminal, …
For B1, in experiment [1], the Kd is ~3.1 µM. In experiment [2], the binding result was “binds”. The molecule further returned a Ka in experiment [3] of 321000 M⁻¹.

B2: R73A: R73A mutant AtLURE1.2 peptide (protein, UniProt Q4VP08 20-90, looked up, variant R73A)
Protein LURE 1.2: TLINGSSDEERTYSFSPTTSPFDPRSLNQELKIGRIGYCFDCARACMRRGKYIATCSFERKLCRCSISDIK
B2: the “pollen tube attraction activity (in words)” value in experiment [4] (setting [7]) is on record as “little effect”.

B3: R79A: R79A mutant AtLURE1.2 peptide (protein, UniProt Q4VP08 20-90, looked up, variant R79A)
Protein LURE 1.2: TLINGSSDEERTYSFSPTTSPFDPRSLNQELKIGRIGYCFDCARACMRRGKYIRTCSFEAKLCRCSISDIK
For the molecule B3, in experiment [4] (setting [7]), the “pollen tube attraction activity (in words)” value is given as “little effect”.

B4: R83A: R83A AtLURE1.2 peptide, Arg83 substituted with alanine (protein)
chain: TLINGSSDEERTYSFSPTTSPFDPRSLNQELKIGRIGYCFDCARACMRRGKYIRTCSFERKLCACSISDIK
modifications: left off: His6, N-terminal, cleaved | SUMO, N-terminal, cleaved
notes: R83A AtLURE1.2 peptide, Arg83 substituted with alanine
As to B4, the “wavy pollen tube response” value in experiment [5] was “decreased; also recorded: greatly reduced the numbers of wavy pollen tubes”. Besides, the “pollen tube attraction activity (in words)” value in experiment [4] (setting [7]) is “significantly lower than those in other four peptides”. Besides, in experiment [4] (gelatin beads containing 250 nM peptide, mean ± SD, 9–16 pollen tubes per assay, 3−5 assays), the “attraction frequency of pollen tubes” value is 56 ± 11%. Besides, the “pollen tubes not attracted to the bead” value in experiment [4] (gelatin beads, 250 nM peptide) is “more than 44%”. Moreover, the “interaction in pull-down assay” value in the experiment with AtPRK6^LRR (Ni-NTA, excess AtLURE1.2, on ice 30 min, washed five times, 25 mM Tris pH 8.0, 150 mM NaCl, SDS-PAGE, Coomassie blue, repeated at least three times) was “compromised but not abolished; also recorded: compromised”. Moreover, the “interaction in pull-down assay, less harsh washing” value in the experiment with AtPRK6^LRR (once or twice washing, peer review file) was “much less than the wild type AtLURE1.2”.

B5: R68A: R68A mutant AtLURE1.2 peptide (protein, UniProt Q4VP08 20-90, looked up, variant R68A)
Protein LURE 1.2: TLINGSSDEERTYSFSPTTSPFDPRSLNQELKIGRIGYCFDCARACMRAGKYIRTCSFERKLCRCSISDIK
Turning to B5, the “pollen tube attraction activity (in words)” value in experiment [4] (setting [7]) is given as “little effect”.

B6: AtLURE1.2 R83A (residues 20-90) (peptide, UniProt Q4VP08 20-90, looked up)
chain: TLINGSSDEERTYSFSPTTSPFDPRSLNQELKIGRIGYCFDCARACMRRGKYIRTCSFERKLCACSISDIK
notes: AtLURE1.2 of Arabidopsis thaliana, mature form, residues 20-90, with R83A; also called R83A AtLURE1.2; mutant peptide R83A; source: High Five insect cells (baculovirus), secreted, purified as AtLURE1.2; not shown: His6, N-terminal, cleaved; SUMO, N-terminal, cleaved
As to B6, the binding result in experiment [6] is recorded as “binds”.
